Reference: PMC7324491, “Non-native proteins inhibit the ER oxidoreductin 1 (Ero1)–protein disulfide-isomerase relay when protein folding capacity is exceeded” (The Journal of Biological Chemistry, 2020)
Ends that are not written are not given here. * marks the point of attachment. Biotin = O=C1N[C@H]2[C@H](CS[C@H]2CCCCC(=O)*)N1

Key:
Ero1α–PDI = biological target: T1, Ero1α–PDI (Homo sapiens, UniProt P07237); assay: oxygen consumption assay; assay type: biochemical; settings: pH 7.0, 50 μM inhibitor pre- or postactivation, 10 μM PDI, 10 mM GSH; control compound
T1 construct: gene P4HB; with ERO1-like protein alpha
T1 sequence (P07237 18-508): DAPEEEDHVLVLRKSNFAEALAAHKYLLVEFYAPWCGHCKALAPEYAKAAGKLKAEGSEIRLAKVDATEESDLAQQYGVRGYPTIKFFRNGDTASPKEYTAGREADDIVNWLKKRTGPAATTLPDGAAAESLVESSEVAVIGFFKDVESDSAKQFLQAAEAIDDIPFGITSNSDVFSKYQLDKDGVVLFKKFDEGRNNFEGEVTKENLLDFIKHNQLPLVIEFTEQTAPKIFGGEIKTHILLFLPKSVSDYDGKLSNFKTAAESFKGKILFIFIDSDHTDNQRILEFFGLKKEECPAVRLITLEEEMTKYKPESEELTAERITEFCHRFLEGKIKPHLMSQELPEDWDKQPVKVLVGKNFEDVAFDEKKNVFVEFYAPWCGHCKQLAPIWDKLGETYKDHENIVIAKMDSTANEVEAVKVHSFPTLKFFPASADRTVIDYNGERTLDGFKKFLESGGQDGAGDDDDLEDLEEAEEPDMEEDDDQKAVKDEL
T1 sequence (Q96HE7 24-468 partner): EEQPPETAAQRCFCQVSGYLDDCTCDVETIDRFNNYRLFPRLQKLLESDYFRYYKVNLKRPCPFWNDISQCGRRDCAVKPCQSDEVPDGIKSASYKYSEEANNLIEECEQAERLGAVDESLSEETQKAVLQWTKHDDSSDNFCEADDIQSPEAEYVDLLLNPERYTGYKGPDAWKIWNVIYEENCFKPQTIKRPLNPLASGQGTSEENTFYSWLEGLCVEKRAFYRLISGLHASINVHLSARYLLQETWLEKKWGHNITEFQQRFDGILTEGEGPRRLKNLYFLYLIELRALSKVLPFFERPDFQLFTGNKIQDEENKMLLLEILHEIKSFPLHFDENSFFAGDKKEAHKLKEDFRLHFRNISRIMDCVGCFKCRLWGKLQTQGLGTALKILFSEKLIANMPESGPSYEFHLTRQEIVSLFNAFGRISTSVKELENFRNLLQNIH

[1] = biological target: T2, His-tagged mature protein disulfide-isomerase (PDI) (human, UniProt P07237 18-508); assay: BLI; biotin-labeled β-hairpin of Ero1α immobilised on SA biosensors; PDI at 0, 0.5, 1.0, 2.0, 4.0 μM; 30 °C; 20 mM sodium phosphate, pH 7.0, 300 mM NaCl, 1 mM DTT; 1:1 model; settings: both partners purified
T2 construct: protein disulfide-isomerase (PDI), human, mature protein, domains a, b, b', a'; calculated mass of the construct 56379 Da; Treated with 1 mM DTT before ITC and in the BLI assays with the β-hairpin
T2 sequence (P07237 18-508): as the sequence (P07237 18-508) above

[2] = biological target: T2, His-tagged mature protein …; assay: ITC; 600 μM KFWWFS injected into 27 μM PDI; 25 °C; 20 mM sodium phosphate, pH 7.0, 0.15 M NaCl; both treated with 1 mM DTT for 5 min before the measurement; settings: both partners purified
[3] = biological target: T2, His-tagged mature protein …; assay: BLI; KFWWFS immobilised on AR2G biosensors; PDI at 0, 0.5, 1.0, 2.0 μM; 30 °C; 20 mM sodium phosphate, pH 7.0, 300 mM NaCl; 1:1 model, association and dissociation fitted separately; settings: both partners purified

Molecule: C[C@]12CC[C@@H]3c4ccc(O)cc4CC[C@H]3[C@@H]1CC[C@H]2O [17α-estradiol]
- inhibition at 50 μM (Ero1α–PDI): it inhibited both activation and catalytic turnover, but only marginally

B1: β-hairpin of Ero1α (RYLLQETWLEKKWGH) with an N-terminal biotin label (peptide)
peptide: Biotin-RYLLQETWLEKKWGH
notes: protruding β-hairpin of human ER oxidoreductin 1 alpha (Ero1α), with a tryptophan at the tip (Trp272); also called β-hairpin loop of Ero1α; source: synthetic peptide, synthesized by GenScript
- Kd [1]: 4 µM

B2: peptide KFWWFS (peptide)
peptide: KFWWFS
notes: model peptide without cysteine that mimics the exposed hydrophobic core of protein substrates; Immobilised on AR2G biosensors for BLI; also called model peptide; source: lyophilized peptide dissolved in 10 mM HCl
- Kd [2]: 6.8 µM
- stoichiometry N [2]: 0.97
- Kd [3]: 12.7 µM
